Measurements from US20250235548A1 (Zymeworks, published 2025).
Where two headings read alike, the source gives them in different places.

Columns and labels:
[1] = target: T1, human sodium-dependent phosphate transporter 2B (NaPi2b) (human, UniProt O95436 1-690); test: cell-based or functional assay
T1 sequence: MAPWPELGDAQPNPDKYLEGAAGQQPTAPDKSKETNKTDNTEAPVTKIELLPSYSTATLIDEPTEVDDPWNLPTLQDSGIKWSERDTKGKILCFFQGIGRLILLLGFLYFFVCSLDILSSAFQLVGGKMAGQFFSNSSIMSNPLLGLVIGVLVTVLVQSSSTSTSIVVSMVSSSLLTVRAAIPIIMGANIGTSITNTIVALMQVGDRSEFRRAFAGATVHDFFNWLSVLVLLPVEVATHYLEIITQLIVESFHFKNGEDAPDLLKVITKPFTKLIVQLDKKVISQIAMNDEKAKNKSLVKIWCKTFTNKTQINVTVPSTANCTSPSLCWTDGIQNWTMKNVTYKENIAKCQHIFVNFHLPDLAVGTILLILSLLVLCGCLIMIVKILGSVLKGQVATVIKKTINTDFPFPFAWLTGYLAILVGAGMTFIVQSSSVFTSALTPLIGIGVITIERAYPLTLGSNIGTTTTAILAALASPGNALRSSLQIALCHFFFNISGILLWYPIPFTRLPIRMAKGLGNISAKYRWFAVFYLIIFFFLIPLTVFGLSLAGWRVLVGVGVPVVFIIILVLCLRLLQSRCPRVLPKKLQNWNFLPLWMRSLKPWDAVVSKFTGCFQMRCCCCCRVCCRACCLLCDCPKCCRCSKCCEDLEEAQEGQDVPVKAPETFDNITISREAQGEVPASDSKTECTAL

[2] = target: T1, human sodium-dependent phosphate …; test: cell-based or functional assay; remark: listed apart in the source
[3] = target: T1, human sodium-dependent phosphate …; test: cell-based or functional assay; remark: listed apart in the source
[4] = target: T1, human sodium-dependent phosphate …; test: flow cytometry on HEK293-6e cells transfected with human NaPi2b
Experimental: Following transfection, cells were seeded at 50,000 cells/well in conical-bottom 96-well plates and treated with test antibody or antibody-drug conjugate for 24 hours at 4° C. to prevent internalization. […] Following incubation and washing, fluorescence was detected by flow cytometry on a BD LSRFortessa™ Cell Analyzer (BD Biosciences, Franklin Lake, NJ) with 1,000 minimum events collected per well.

[5] = target: T2, human sodium-dependent phosphate transporter 2B (NaPi2b) (human, UniProt O95436 1-690); test: flow cytometry, IGROV-1, HCC-78 and H441 cells
T2 construct: also called hNaPi2b; Hu NaPi2b
T2 sequence: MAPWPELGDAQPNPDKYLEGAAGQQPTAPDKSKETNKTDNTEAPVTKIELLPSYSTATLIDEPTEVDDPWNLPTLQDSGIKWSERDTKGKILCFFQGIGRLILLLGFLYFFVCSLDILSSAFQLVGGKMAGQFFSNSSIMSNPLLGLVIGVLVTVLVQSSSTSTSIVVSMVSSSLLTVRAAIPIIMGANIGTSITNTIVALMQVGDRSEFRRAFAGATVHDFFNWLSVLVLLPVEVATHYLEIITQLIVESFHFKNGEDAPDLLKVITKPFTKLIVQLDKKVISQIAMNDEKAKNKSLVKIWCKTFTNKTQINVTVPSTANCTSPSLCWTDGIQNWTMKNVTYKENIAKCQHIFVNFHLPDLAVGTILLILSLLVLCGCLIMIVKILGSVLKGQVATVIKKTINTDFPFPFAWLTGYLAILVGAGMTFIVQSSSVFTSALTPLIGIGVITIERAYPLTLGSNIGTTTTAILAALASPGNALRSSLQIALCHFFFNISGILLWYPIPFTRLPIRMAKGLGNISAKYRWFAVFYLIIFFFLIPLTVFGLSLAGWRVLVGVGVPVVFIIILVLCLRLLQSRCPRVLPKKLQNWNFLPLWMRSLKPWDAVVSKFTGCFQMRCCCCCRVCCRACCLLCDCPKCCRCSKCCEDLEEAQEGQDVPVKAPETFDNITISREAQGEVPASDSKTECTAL

[6] = target: T2, human sodium-dependent phosphate …; test: flow cytometry on IGROV-1 cells (endogenous NaPi2b), 24 h at 4 C, anti-human IgG Fc AF647, APC-A GeoMean
Experimental: Briefly, cells were seeded at 50,000 cells/well in conical-bottom 96-well plates and treated with test antibody for 24 hours at 4° C. to prevent internalization. […] Following incubation and washing, fluorescence was detected by flow cytometry on a BD LSRFortessa™ Cell Analyzer (BD Biosciences, Franklin Lake, NJ) with 1,000 minimum events collected per well.

B1: v18993 (lifastuzumab)-MCvcPABC-MMAE DAR 4 (antibody, human IgG1, kappa)
heavy 1: GEVQLVESGGGLVQPGGSLRLSCAASGFSFSDFAMSWVRQAPGKGLEWVATIGRVAFHTYYPDSMKGRFTISRDNSKNTLYLQMNSLRAEDTAVYYCARHRGFDVGHFDFWGQGTLVTVSSASTKGPSVFPLAPSSKSTSGGTAALGCLVKDYFPEPVTVSWNSGALTSGVHTFPAVLQSSGLYSLSSVVTVPSSSLGTQTYICNVNHKPSNTKVDKKVEPKSCDKTHTCPPCPAPELLGGPSVFLFPPKPKDTLMISRTPEVTCVVVDVSHEDPEVKFNWYVDGVEVHNAKTKPREEQYNSTYRVVSVLTVLHQDWLNGKEYKCKVSNKALPAPIEKTISKAKGQPREPQVYVYPPSRDELTKNQVSLTCLVKGFYPSDIAVEWESNGQPENNYKTTPPVLDSDGSFALVSKLTVDKSRWQQGNVFSCSVMHEALHNHYTQKSLSLSPG
heavy 2: not shown
light: GDIQMTQSPSSLSASVGDRVTITCRSSETLVHSSGNTYLEWYQQKPGKAPKLLIYRVSNRFSGVPSRFSGSGSGTDFTLTISSLQPEDFATYYCFQGSFNPLTFGQGTKVEIKRTVAAPSVFIFPPSDEQLKSGTASVVCLLNNFYPREAKVQWKVDNALQSGNSQESVTEQDSKDSTYSLSSTLTLSKADYEKHKVYACEVTHQGLSSPVTKSFNRGEC
modifications: MCvcPABC-MMAE drug-linker; DAR 4 for the whole antibody; attachment residues not stated
- EC50 of cytotoxicity, H441 3D spheroids [1]: 11.7 nM
- EC50 of cytotoxicity, IGROV-1 3D spheroids [1]: 0.69 nM
- EC50 of cytotoxicity, TOV-21G 3D spheroids [1]: 25.5 nM

B2: v29456-MC-GGFG-AM-Compound 139 DAR 8 (antibody, human IgG1, kappa)
heavy: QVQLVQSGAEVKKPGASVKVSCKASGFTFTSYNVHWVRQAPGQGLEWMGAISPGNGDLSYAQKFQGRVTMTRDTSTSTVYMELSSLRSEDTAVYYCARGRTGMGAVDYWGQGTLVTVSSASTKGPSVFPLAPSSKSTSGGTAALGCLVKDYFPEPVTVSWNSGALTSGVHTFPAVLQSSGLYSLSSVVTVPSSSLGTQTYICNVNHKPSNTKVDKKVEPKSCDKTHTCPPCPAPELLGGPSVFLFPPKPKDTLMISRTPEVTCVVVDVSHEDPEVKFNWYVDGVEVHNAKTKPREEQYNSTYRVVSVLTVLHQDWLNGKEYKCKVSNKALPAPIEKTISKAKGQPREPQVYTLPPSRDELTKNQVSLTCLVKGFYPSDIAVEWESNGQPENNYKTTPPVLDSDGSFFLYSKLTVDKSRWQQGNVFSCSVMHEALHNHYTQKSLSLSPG
light: DVQMTQSPSSLSASVGDRVTITCRASQDVYSYLNWYQQKPGKAVKLLIYYTSRLQSGVPSRFSGSGSGTDYTLTISSLQPEDFATYYCQQYNIFPWTFGQGTKLEIKRTVAAPSVFIFPPSDEQLKSGTASVVCLLNNFYPREAKVQWKVDNALQSGNSQESVTEQDSKDSTYSLSSTLTLSKADYEKHKVYACEVTHQGLSSPVTKSFNRGEC
modifications: MC-GGFG-AM-Compound 139 drug-linker on reduced cysteines (maleimide); DAR 8 for the whole antibody
- EC50 of cytotoxicity, 2D monolayer, IGROV-1 cells [2]: 0.39 nM
- EC50 of cytotoxicity, 2D monolayer, TOV-21G cells [2]: 4.3 nM
- EC50 of cytotoxicity, IGROV-1 3D spheroids [3]: 0.31 nM
- EC50 of cytotoxicity, TOV-21G:HDFa (1:1) 3D spheroids [3]: 0.24 nM
- EC50 of cytotoxicity, H441 3D spheroids [1]: 1.57 nM
- EC50 of cytotoxicity, IGROV-1 3D spheroids [1]: 0.55 nM
- EC50 of cytotoxicity, TOV-21G 3D spheroids [1]: 0.54 nM

B3: humanized anti-NaPi2b antibody variant v38591 (antibody, human IgG1, kappa)
heavy: not shown
light: DVQMTQSPSSLSASVGDRVTITCRASQDVYSYLNWYQQKPGKAVKLLIYYTSRLQSGVPSRFSGSGSGTDYTLTISSLQPEDFATYYCQQYNIFPWTFGQGTKLEIKRTVAAPSVFIFPPSDEQLKSGTASVVCLLNNFYPREAKVQWKVDNALQSGNSQESVTEQDSKDSTYSLSSTLTLSKADYEKHKVYACEVTHQGLSSPVTKSFNRGEC
notes: Human IgG1/kappa full-size antibody; It is identical to v29456 except that the heavy chains include a C-terminal lysine; also called v38591 (H1L2)
- Bmax [4]: 65

B4: v21995 (palivizumab), anti-RSV negative control antibody (antibody, human IgG1, kappa, V domains shown)
VH: QVTLRESGPALVKPTQTLTLTCTFSGFSLSTSGMSVGWIRQPPGKALEWLADIWWDDKKDYNPSLKSRLTISKDTSKNQVVLKVTNMDPADTATYYCARSMITNWYFDVWGAGTTVTVSS
VL: DIQMTQSPSTLSASVGDRVTITCKSQLSVGYMHWYQQKPGKAPKLLIYDTSKLASGVPSRFSGSGSGTEFTLTISSLQPDDFATYYCFQGSGYPFTFGGGTKLEIKR
- binding result [5]: no binding

B5: v18992 (MX35)-DL2 antibody-drug conjugate (antibody, human IgG1, kappa)
heavy 1: GQVQLVQSGAEVVKPGASVKMSCKASGYTFTGYNIHWVKQAPGQGLEWIGAIYPGNGDTSYKQKFRGRATLTADTSTSTVYMELSSLRSEDSAVYYCARGETARATFAYWGQGTLVTVSSASTKGPSVFPLAPSSKSTSGGTAALGCLVKDYFPEPVTVSWNSGALTSGVHTFPAVLQSSGLYSLSSVVTVPSSSLGTQTYICNVNHKPSNTKVDKKVEPKSCDKTHTCPPCPAPELLGGPSVFLFPPKPKDTLMISRTPEVTCVVVDVSHEDPEVKFNWYVDGVEVHNAKTKPREEQYNSTYRVVSVLTVLHQDWLNGKEYKCKVSNKALPAPIEKTISKAKGQPREPQVYVYPPSRDELTKNQVSLTCLVKGFYPSDIAVEWESNGQPENNYKTTPPVLDSDGSFALVSKLTVDKSRWQQGNVFSCSVMHEALHNHYTQKSLSLSPG
heavy 2: not shown
light: GDIQMTQSPSSLSASVGDRVTITCSASQDIGNFLNWYQQKPGKTVKVLIYYTSSLYSGVPSRFSGSGSGTDYTLTISSLQPEDFATYYCQQYSKLPLTFGQGTKLELKRTVAAPSVFIFPPSDEQLKSGTASVVCLLNNFYPREAKVQWKVDNALQSGNSQESVTEQDSKDSTYSLSSTLTLSKADYEKHKVYACEVTHQGLSSPVTKSFNRGEC
modifications: maleimide functionalized auristatin drug linker (DL2); sites and DAR not stated
notes: also called MX35-DL2 ADC
- EC50 (read off the curve) [6]: ~1 nM
